Data reported in patent US20210095300, “INTERFERING WITH HD-ZIP TRANSCRIPTION FACTOR REPRESSION OF GENE EXPRESSION TO PRODUCE PLANTS WITH ENHANCED TRAITS” (Monsanto Technology LLC, published 2021).

Columns and labels:
[1] = target: T1, ATHB17Δ113-C200A-C243S-C246S (Arabidopsis thaliana, UniProt Q8S9N6 SEQ:1-162); assay: SPR; random DNA
T1 chain: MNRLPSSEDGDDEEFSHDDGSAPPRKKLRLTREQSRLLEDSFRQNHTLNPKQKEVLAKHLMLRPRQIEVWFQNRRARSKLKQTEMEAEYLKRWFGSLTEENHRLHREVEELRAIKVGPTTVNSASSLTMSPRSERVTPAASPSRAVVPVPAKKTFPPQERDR
Source text: (§1) HD-Zip I and II proteins bind to similar cis elements (CAAT(N)ATTG) under in vitro conditions (Sessa et al., EMBO J 12:3507-3517, 1993); Meijer et al., Mol Gen Genet 263:12-21, 2000); Frank et al., Plant J Cell Molec Biol 15:413-421, 1998); Deng et al., Plant Mol Biol 49:601-610, 2002). HD-Zip II members bind preferentially to the pseudo-palindromic sequence CAAT(C/G)ATTG (SEQ ID NO:55) (Sessa et al., EMBO J 12:3507-3517, 1993), whereas members of the HD-Zip I subfamily bind preferentially to a pseudo-palindromic sequence that differs from that of HD-Zip II at the central nucleotide (CAAT(A/T)ATTG) (SEQ ID NO:56) (Ariel et al., Trends Plant Sci 12:419-426, 2007). The DNA-binding properties of ATHB17Δ113 was tested in vitro using a surface plasmon resonance (SPR) assay for both class I and class II recognition sequences. The oligonucleotides used in this assay were […] (Class II), […] (Class I), and […] (non consensus), where the pseudo-palindromic sequences flanked by four nucleotides at the 5′ end and 3′end of the oligo are underlined.
(§2) ATHB17 amino acid substitutions and domain deletions were generated by comparing the ATHB17 protein sequence with those of mammalian HD and other plant HD-Zip transcription factors. These variants were evaluated for their DNA binding properties using SPR on Biacore 2000 as described in Example 2.

ATHB17Δ113-C243S-C246S [2] = target: T2, ATHB17Δ113-C243S-C246S (Arabidopsis thaliana, UniProt Q8S9N6 SEQ:1-162); assay: SPR; random DNA; conditions: chain copies: 2 (homodimer, inferred)
T2 chain: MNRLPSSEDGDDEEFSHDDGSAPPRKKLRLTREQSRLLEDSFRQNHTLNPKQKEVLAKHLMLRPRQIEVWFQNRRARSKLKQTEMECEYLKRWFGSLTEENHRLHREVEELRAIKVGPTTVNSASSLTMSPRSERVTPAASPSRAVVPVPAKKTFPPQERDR
Source text: as §1, §2

ATHB17Δ113-F155L [3] = target: T3, ATHB17Δ113-F155L (Arabidopsis thaliana, UniProt Q8S9N6 SEQ:1-162); assay: SPR; random DNA; conditions: chain copies: 2 (homodimer, inferred)
T3 chain: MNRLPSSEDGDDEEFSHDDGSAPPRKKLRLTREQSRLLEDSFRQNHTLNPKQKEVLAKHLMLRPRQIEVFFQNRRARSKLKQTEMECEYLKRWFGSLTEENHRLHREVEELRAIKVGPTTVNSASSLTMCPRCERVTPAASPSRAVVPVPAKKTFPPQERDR
Source text: as §1, §2

[4] = target: T4, ATHB17Δ113-V182A-Q185A-N186A (Arabidopsis thaliana, UniProt Q8S9N6 SEQ:1-162); assay: SPR; random DNA
T4 chain: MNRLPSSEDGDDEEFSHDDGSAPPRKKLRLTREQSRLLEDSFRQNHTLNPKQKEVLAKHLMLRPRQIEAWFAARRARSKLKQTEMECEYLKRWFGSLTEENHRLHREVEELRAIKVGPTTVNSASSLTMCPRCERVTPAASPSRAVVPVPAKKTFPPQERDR
Source text: as §1, §2

[5] = target: T5, ATHB17Δ113-T196A-L203A-L210A-L217A-L224A (Arabidopsis thaliana, UniProt Q8S9N6 SEQ:1-162); assay: SPR; random DNA
T5 chain: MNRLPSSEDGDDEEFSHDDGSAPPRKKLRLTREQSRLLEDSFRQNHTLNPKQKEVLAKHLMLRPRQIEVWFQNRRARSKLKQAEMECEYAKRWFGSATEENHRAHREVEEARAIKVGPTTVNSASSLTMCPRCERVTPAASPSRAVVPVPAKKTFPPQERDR
Source text: as §1, §2

ATHB17Δ113-Δ194-224 [6] = target: T6, ATHB17Δ113-Δ194-224 (Arabidopsis thaliana); assay: SPR; random DNA
T6 chain: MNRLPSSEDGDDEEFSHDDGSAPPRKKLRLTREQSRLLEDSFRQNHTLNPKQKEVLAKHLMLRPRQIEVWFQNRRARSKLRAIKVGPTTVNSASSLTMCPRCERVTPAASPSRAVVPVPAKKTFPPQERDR
Source text: as §1, §2

ATHB17Δ113-C243S [7] = target: T7, ATHB17Δ113-C243S (Arabidopsis thaliana, UniProt Q8S9N6 SEQ:1-162); assay: SPR; random DNA; conditions: chain copies: 2 (homodimer, inferred)
T7 chain: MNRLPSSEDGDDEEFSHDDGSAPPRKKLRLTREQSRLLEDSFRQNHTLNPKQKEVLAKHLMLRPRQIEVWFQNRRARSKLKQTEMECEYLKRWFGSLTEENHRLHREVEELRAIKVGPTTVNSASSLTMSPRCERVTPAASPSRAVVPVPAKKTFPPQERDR
Source text: as §1, §2

ATHB17Δ113-Δ138-195 [8] = target: T8, ATHB17Δ113-Δ138-195 (Arabidopsis thaliana); assay: SPR; random DNA
T8 chain: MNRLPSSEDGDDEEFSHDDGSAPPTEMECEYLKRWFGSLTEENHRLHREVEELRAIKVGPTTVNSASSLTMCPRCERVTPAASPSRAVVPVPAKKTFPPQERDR
Source text: as §1, §2

ATHB17Δ113-C246S [9] = target: T9, ATHB17Δ113-C246S (Arabidopsis thaliana, UniProt Q8S9N6 SEQ:1-162); assay: SPR; random DNA; conditions: chain copies: 2 (homodimer, inferred)
T9 chain: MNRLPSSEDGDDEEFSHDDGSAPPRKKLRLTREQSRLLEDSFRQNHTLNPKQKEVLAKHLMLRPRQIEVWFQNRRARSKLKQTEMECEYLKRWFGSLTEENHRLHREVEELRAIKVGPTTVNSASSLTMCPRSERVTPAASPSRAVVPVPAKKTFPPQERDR
Source text: as §1, §2

ATHB17Δ113-W183F [10] = target: T10, ATHB17Δ113-W183F (Arabidopsis thaliana, UniProt Q8S9N6 SEQ:1-162); assay: SPR; random DNA; conditions: chain copies: 2 (homodimer, inferred)
T10 chain: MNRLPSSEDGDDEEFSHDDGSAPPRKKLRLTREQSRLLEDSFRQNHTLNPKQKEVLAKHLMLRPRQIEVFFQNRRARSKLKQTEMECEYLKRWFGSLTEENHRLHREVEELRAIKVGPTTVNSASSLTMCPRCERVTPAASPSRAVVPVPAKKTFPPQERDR
Source text: as §1, §2

ATHB17Δ113 [11] = target: T11, ATHB17Δ113 (Arabidopsis thaliana, UniProt Q8S9N6 SEQ:1-162); assay: SPR; random DNA did not interact with any protein tested; conditions: chain copies: 2 (homodimer, inferred)
T11 chain: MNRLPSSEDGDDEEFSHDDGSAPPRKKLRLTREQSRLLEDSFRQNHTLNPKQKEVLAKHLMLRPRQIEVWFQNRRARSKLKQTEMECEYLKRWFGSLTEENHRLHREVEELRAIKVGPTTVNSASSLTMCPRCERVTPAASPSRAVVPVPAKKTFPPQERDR
Source text: as §1, §2

ATHB17Δ113-R190K [12] = target: T12, ATHB17Δ113-R190K (Arabidopsis thaliana, UniProt Q8S9N6 SEQ:1-162, R190K (full-length numbering)); assay: SPR; reduced affinity to BS2; conditions: chain copies: 2 (homodimer, inferred)
T12 sequence: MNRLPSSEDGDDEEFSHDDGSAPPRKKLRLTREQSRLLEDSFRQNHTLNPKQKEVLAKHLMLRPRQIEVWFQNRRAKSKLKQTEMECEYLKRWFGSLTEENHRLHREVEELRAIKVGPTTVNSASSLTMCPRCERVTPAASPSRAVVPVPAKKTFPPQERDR

[13] = target: T5, ATHB17Δ113-T196A-L203A-L210A-L217A-L224A; assay: SPR; leucine zipper mutant
ATHB17Δ113 [14] = target: T11, ATHB17Δ113; assay: SPR; Biacore 2000; kon 42.3e5, koff 880.6e-4; conditions: chain copies: 2 (homodimer, inferred)
Source text: as §1, §2

[15] = target: T1, ATHB17Δ113-C200A-C243S-C246S; assay: SPR
Source text: as §1, §2

ATHB17Δ113-C243S-C246S [16] = target: T2, ATHB17Δ113-C243S-C246S; assay: SPR; conditions: chain copies: 2 (homodimer, inferred)
Source text: as §1, §2

ATHB17Δ113-F155L [17] = target: T3, ATHB17Δ113-F155L; assay: SPR; conditions: chain copies: 2 (homodimer, inferred)
Source text: as §1, §2

ATHB17Δ113-C243S [18] = target: T7, ATHB17Δ113-C243S; assay: SPR; conditions: chain copies: 2 (homodimer, inferred)
Source text: as §1, §2

ATHB17Δ113-C246S [19] = target: T9, ATHB17Δ113-C246S; assay: SPR; conditions: chain copies: 2 (homodimer, inferred)
Source text: as §1, §2

ATHB17Δ113-W183F [20] = target: T10, ATHB17Δ113-W183F; assay: SPR; asterisked in table; text says 11 uM, significantly reduced but not completely suppressed; conditions: chain copies: 2 (homodimer, inferred)
Source text: as §1, §2

ATHB17Δ113-Δ194-224 [21] = target: T6, ATHB17Δ113-Δ194-224; assay: SPR; leucine zipper deletion
Source text: as §1, §2

[22] = target: T4, ATHB17Δ113-V182A-Q185A-N186A; assay: SPR; no binding within the concentration range used
Source text: as §1, §2

ATHB17Δ113-Δ138-195 [23] = target: T8, ATHB17Δ113-Δ138-195; assay: SPR; homeodomain deletion
Source text: as §1, §2

ATHB17Δ113 [24] = target: T11, ATHB17Δ113; assay: SPR; Biacore 2000; unit from p118; conditions: chain copies: 2 (homodimer, inferred)
[25] = target: T4, ATHB17Δ113-V182A-Q185A-N186A; assay: SPR; loses interaction with BS1
Source text: as §1, §2

ATHB17Δ113-R190K [26] = target: T12, ATHB17Δ113-R190K; assay: SPR; no significant change vs parent; conditions: chain copies: 2 (homodimer, inferred)
ATHB17Δ113-Δ138-195 [27] = target: T8, ATHB17Δ113-Δ138-195; assay: SPR; homeodomain deletion; similar results stated
Source text: as §1, §2

B1: non consensus oligo (random DNA) (dsDNA)
DNA 1: CAGCTCAGTCTGACGGC
DNA 2: GCCGTCAGACTGAGCTG
- binding result [1]: no binding
- binding result (ATHB17Δ113-C243S-C246S [2]): no binding
- binding result (ATHB17Δ113-F155L [3]): no binding
- binding result [4]: no binding
- binding result [5]: no binding
- binding result (ATHB17Δ113-Δ194-224 [6]): no binding
- binding result (ATHB17Δ113-C243S [7]): no binding
- binding result (ATHB17Δ113-Δ138-195 [8]): no binding
- binding result (ATHB17Δ113-C246S [9]): no binding
- binding result (ATHB17Δ113-W183F [10]): no binding
- binding result (ATHB17Δ113 [11]): no binding

B2: Class II oligo (BS2) (dsDNA)
DNA 1: CAGACAATCATTGCGGC
DNA 2: GCCGCAATGATTGTCTG
- Kd (ATHB17Δ113-R190K [12]): 68.2 nM
- binding result [13]: no binding
- Kd (ATHB17Δ113 [14]): 20.4 nM
- binding result [15]: no binding
- Kd (ATHB17Δ113-C243S-C246S [16]): 41.1 nM
- Kd (ATHB17Δ113-F155L [17]): 3630 nM
- Kd (ATHB17Δ113-C243S [18]): 82.2 nM
- Kd (ATHB17Δ113-C246S [19]): 63.6 nM
- Kd (ATHB17Δ113-W183F [20]): 11000 nM
- Kd (ATHB17Δ113-Δ194-224 [21]): 4800 nM
- binding result [22]: no binding
- binding result (ATHB17Δ113-Δ138-195 [23]): no binding

B3: Class I oligo (BS1) (dsDNA)
DNA 1: CAGACAATTATTGCGGC
DNA 2: GCCGCAATAATTGTCTG
- Kd (ATHB17Δ113 [24]): 37.7 nM
- binding result [25]: no binding
- Kd (ATHB17Δ113-R190K [26]): 25.7 nM
- binding result (ATHB17Δ113-Δ138-195 [27]): no binding
